Series [1] deals with T1, human GLP-1R (Homo sapiens, UniProt P43220).
T1 construct: host or cells: CHO-K1
As to the kind of experiment: cAMP receptor activation assay, human GLP-1R cloned into CHO cells (DiscoverX LeadHunter / cAMP Hunter). It is filed as cell-based. The settings on record: for Selectivity Ratio GLP-1R vs GCGR: SR = GCGR EC50/GLP-1 EC50, 0.1% BSA; for EC50: cAMP, CHO cells, 0.1% BSA containing buffers, read-out: pEC50 (SE) hu GLP-1 (converted).
Protocol: (§1) Cellular assays were carried out using standard cellular assays (DiscoveRx, LeadHunter assays) using readout of cAMP stimulation or arrestin activation. Compounds were weighed precisely in an amount of approximately 1 mg and shipped to DiscoverX (Fremont, Calif.) for dilution and assay. […] Assays were carried out in the presence of 0.1% ovalbumin. […] Use of 0.1% ovalbumin can avoid this problem.
(§2) Assays were carried out in the presence of 0.1% ovalbumin. […] Use of 0.1% ovalbumin can avoid this problem.
(§3) Receptor activation assays were performed at DiscoverX laboratories (Fremont, Calif.) using human GLP-1R and GCGR cloned into Chinese Hamster Ovary (CHO) cells (LeadHunter Discovery Services; assay product 86-0007D cAMP Hunter™ using huGLP1R and huGCGR; whole cell cAMP accumulation assays; cell lines used were cAMP Hunter™ CHO-K1 GCGR Gs Cell Line, catalog 95-0042C2 and cAMP Hunter™ CHO-K1 GLP1 Gs Cell Line, catalog 95-0062C2; readout of accumulated cAMP was made using readout HitHunter cAMP XS+ assay). Cell lines are maintained at DiscoverX and were incubated with test agents for 30 m at 37° C. for accumulation of cAMP. […] Results described herein are from single assays performed on cells in duplicate and data were replotted in Prism 5 to provide pEC50 (SE) data.
(§4) In vitro data are presented as pEC50 (SE) determined in Prism 5 by nonlinear regression analysis of the raw fluorescence data normalized by corresponding response to internal standards (see Supporting Information for data plots).

Series [2] is described as follows: pharmacokinetics in Gottingen minipigs (cassette sc dosing, 20 nmol/kg). It is filed as in vivo, Gottingen minipig. The settings on record: 20 nmol/kg sc; for plasma levels compared to liraglutide: analogue 2 at 4 h, 4 at 2-12 h, 5 at 2, 12, 24 h. The source says:
This study uses a cassette style dosing, to minimize large animal usage, but with injection subcutaneously at separate sites to preclude each compound's influencing uptake of another compound. A total of two male Gottingen minipigs were assigned to study. The animals were pair housed in pens on raised floor caging. The animals weighed between approximately 11-15 kg at transfer and approximately 5-8 months of age. The same animals were to be used for multiple phases, following a minimum 1-week washout period. To facilitate dosing and to ensure animal safety during the dosing procedure, animals were sedated with Telazol (IM, 4-6 mg/kg) prior to dosing. Dosing was subcutaneous via bolus injection between the skin and underlying layers of tissue in the ventral region of the animal. A total of […] sites were used for each phase with different compounds dosed at each of the 4 sites. Compounds are formulated in saline containing 0.2% BSA […] at pH 3.5. Each stock solution was diluted with normal saline (pH 7.4) to the required final conc and sterile filtered. Dosing is at 20 nmol/kg. Blood samples were collected pre-dose and at 2, 4, 6, 8, 12, 24, 36, 48, 72 and 96-hours post-dose. At each blood collection time point a 1 mL sample is taken from the jugular vein into K2EDTA tubes on ice before processing to plasma by centrifugation. The plasma samples containing the 4 test compounds were sent to Climax Labs for separation and quantitation by LC-MS/MS as noted below (2.5.3).
Analysis was carried out at Climax Laboratories (San Jose, Calif.) on an API-4000 Mass Spectrometer, ESI positive, MRM scan. Samples were loaded on a Shimadzu HPLC/CTC Autosampler with an ACE C4 column (2.1×50 mm, 5 μm). Elution was by gradient from aqueous 0.5% formic acid, 5 mM NH4OAc to 0.5% formic acid in CH3CN/H2O (9:1). […] After transfer to a 96 well plate, a 40 μL sample was injected and the individual compound peaks were quantitated with standard curves. […] The quantitation limit is 1-2 ng/mL, depending on analog structure.

Series [3] deals with GCGR (Homo sapiens, UniProt P47871). The series can be described thus: cAMP receptor activation assay, human GCGR cloned into CHO cells (DiscoverX LeadHunter / cAMP Hunter). It is filed as cell-based. On the set-up: host or cells: CHO-K1. The following applies: cAMP, CHO cells, 0.1% BSA containing buffers; read-out: pEC50 (SE) huGCGR (converted).
Protocol: as §1, §2, §3, §4
Series [4] is described as follows: CMC of Polysorbate 20 in F58 buffer pH 7.7 with added ALT-801 by surface tensiometry. It counts as physicochemical. The source says: CMC shifts are simply calculated as CMC in the presence of the ALT-801 less the CMC for the surfactant alone in solution.
Series [5] can be described thus: in vitro stability in pooled human plasma. The settings on record: 1 to 10 μM; GLP-1 7-36 amide at 4 h, analogs at 8 h.
Protocol: The stability test was carried out at Climax Laboratories, Inc. (San Jose, Calif.).
The conditions of series [6]: clinical studies, cited from earlier work.
In series [7] the target is bovine serum albumin (BSA) (bovine, UniProt P02769 25-607). As to the kind of experiment: method not stated (data not shown).
In series [8] the target is plasma proteins of human. As to the kind of experiment: ultracentrifugation of spiked plasma (15000 ng/mL), 37 C, 6 h, LC-MS of supernatant; supernatant value BLQ, extrapolated.
Series [9] deals with plasma proteins of dog. The series is described as above.
For series [10], the target named is plasma proteins of human. The series can be described thus: ultracentrifugation of spiked plasma (15000 ng/mL), 37 C, 6 h, LC-MS of supernatant.
Series [11] deals with plasma proteins of rat. The series is described as above.
The target of series [12] is plasma proteins of dog. Described as above.
Series [13] has as its target plasma proteins of monkey. The series is described as above.
Series [14] has as its target human glucagon receptor (GCGR) (human, UniProt P47871 26-477). The series can be described thus: cell-based or functional assay.
In series [15] the target is human glucagon-like peptide 1 receptor (GLP-1R) (human, UniProt P43220 24-463). The series can be described thus: cell-based or functional assay.

“And” between values parts separate entries of the source, which are not always exact repeats. Equal entries are not always repeated. “Also recorded” adds a separate entry of the source. Positions of bridges follow the written chain, without caps; N, C: chain ends. Non-standard residues stand in square brackets, D forms with d. No end group written: not given here. GC8 = D-glucoside-derived uronic acid with C8 alkyl chain; Aib = CC(C)(N)C(=O)O

T1 sequence (P43220 24-463): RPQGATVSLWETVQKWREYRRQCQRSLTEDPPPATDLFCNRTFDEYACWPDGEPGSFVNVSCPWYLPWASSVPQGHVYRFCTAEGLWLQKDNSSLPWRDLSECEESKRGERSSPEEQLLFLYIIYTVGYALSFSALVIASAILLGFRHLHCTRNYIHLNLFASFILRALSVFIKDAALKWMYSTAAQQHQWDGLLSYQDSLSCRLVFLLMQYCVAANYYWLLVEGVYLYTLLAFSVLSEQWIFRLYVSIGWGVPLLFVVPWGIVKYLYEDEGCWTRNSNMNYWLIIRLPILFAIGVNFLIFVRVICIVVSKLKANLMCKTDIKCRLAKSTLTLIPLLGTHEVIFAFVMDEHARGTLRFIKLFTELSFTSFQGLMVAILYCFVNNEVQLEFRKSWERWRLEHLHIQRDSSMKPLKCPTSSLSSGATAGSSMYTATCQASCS
bovine serum albumin (BSA), sequence (P02769 25-607 limits assumed): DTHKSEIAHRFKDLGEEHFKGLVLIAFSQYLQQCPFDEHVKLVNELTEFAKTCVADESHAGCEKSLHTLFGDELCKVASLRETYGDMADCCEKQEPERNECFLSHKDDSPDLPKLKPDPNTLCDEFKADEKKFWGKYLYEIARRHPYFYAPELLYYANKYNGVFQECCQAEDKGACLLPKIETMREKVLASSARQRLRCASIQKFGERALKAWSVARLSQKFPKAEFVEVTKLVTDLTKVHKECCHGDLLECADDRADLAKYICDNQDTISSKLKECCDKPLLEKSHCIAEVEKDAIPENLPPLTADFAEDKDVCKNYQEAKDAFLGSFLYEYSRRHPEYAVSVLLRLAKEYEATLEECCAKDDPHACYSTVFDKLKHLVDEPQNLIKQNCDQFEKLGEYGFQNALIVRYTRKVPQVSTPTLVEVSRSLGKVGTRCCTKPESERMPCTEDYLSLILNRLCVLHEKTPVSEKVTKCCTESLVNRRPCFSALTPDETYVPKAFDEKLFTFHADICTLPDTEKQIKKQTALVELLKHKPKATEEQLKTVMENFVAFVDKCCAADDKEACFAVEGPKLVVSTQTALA
human glucagon-like peptide 1 receptor (GLP-1R), sequence (P43220 24-463): as the sequence (P43220 24-463) above

On to `CCCCCCCCCCCCCCO[C@@H]1O[C@H](C(=O)NCCCC[C@H](NC(=O)[C@@H](NC(=O)[C@H](Cc2ccccc2)NC(=O)[C@H](CCC(=O)O)NC(=O)[C@@H]2CCCCNC(=O)CC[C@H](NC(=O)[C@H](CC(=O)O)NC(=O)[C@H](CC(C)C)NC(=O)[C@H](Cc3ccc(O)cc3)NC(=O)[C@H](CCCCN)NC(=O)[C@H](CO)NC(=O)[C@H](Cc3ccc(O)cc3)NC(=O)[C@H](CC(=O)O)NC(=O)[C@H](CO)NC(=O)[C@@H](NC(=O)[C@H](Cc3ccccc3)NC(=O)[C@@H](NC(=O)CNC(=O)[C@H](CCC(N)=O)NC(=O)C(C)(C)NC(=O)[C@@H](N)Cc3c[nH]cn3)[C@@H](C)O)[C@@H](C)O)C(=O)N[C@@H](CCC(N)=O)C(=O)N[C@@H](C)C(=O)N[C@@H](C)C(=O)N2)[C@@H](C)CC)C(=O)N[C@@H](Cc2c[nH]c3ccccc23)C(=O)N[C@@H](CC(C)C)C(=O)N[C@@H](CC(C)C)C(=O)N[C@@H](CCC(N)=O)C(=O)N[C@H](C(N)=O)[C@@H](C)O)[C@@H](O)[C@H](O)[C@H]1O` [analogue 4], for which, in series [1], the “Selectivity Ratio GLP-1R vs GCGR” value was determined as 2 and the EC50 was 0.0158 nM. In series [2], the “Cmax and PK profiles” value was “optimal”; the “plasma levels compared to liraglutide” value is “Significantly higher plasma levels”. For the same molecule, the EC50 in series [3] was 0.0302 nM.

As to Polysorbate 20, in series [4], the “Polysorbate 20 CMC Value, No ALT-801, Average” value was determined as 0.722 mg/mL. In addition, the “Polysorbate 20 CMC Value, No ALT-801” value in series [4] (Test # 1 and 2) is 0.721 mg/mL and 0.722 mg/mL.

As to `CCCCCCCCCCO[C@@H]1O[C@H](C(=O)NCCCC[C@H](NC(=O)[C@@H](NC(=O)[C@H](Cc2ccccc2)NC(=O)[C@H](CCC(=O)O)NC(=O)[C@@H]2CCCCNC(=O)CC[C@H](NC(=O)[C@H](CC(=O)O)NC(=O)[C@H](CC(C)C)NC(=O)[C@H](Cc3ccc(O)cc3)NC(=O)[C@H](CCCCN)NC(=O)[C@H](CO)NC(=O)[C@H](Cc3ccc(O)cc3)NC(=O)[C@H](CC(=O)O)NC(=O)[C@H](CO)NC(=O)[C@@H](NC(=O)[C@H](Cc3ccccc3)NC(=O)[C@@H](NC(=O)CNC(=O)[C@H](CCC(N)=O)NC(=O)C(C)(C)NC(=O)[C@@H](N)Cc3c[nH]cn3)[C@@H](C)O)[C@@H](C)O)C(=O)N[C@@H](CCC(N)=O)C(=O)N[C@@H](C)C(=O)N[C@@H](C)C(=O)N2)[C@@H](C)CC)C(=O)N[C@@H](Cc2c[nH]c3ccccc23)C(=O)N[C@@H](CC(C)C)C(=O)N[C@@H](CC(C)C)C(=O)N[C@@H](CCC(N)=O)C(=O)N[C@H](C(N)=O)[C@@H](C)O)[C@@H](O)[C@H](O)[C@H]1O` [analogue 2], in series [1], the “Selectivity Ratio GLP-1R vs GCGR” value was 2 and the EC50 was 0.0126 nM. Moreover, the “plasma levels compared to liraglutide” value in [2] is “Significantly higher plasma levels”. In addition, the EC50 in series [3] is 0.02 nM.

For `CC[C@H](C)[C@H](NC(=O)[C@H](Cc1ccccc1)NC(=O)[C@H](CCC(=O)O)NC(=O)[C@H](CCCCN)NC(=O)[C@H](C)NC(=O)[C@H](C)NC(=O)[C@H](CCC(N)=O)NC(=O)CNC(=O)[C@H](CCC(=O)O)NC(=O)[C@H](CC(C)C)NC(=O)[C@H](Cc1ccc(O)cc1)NC(=O)[C@H](CO)NC(=O)[C@H](CO)NC(=O)[C@@H](NC(=O)[C@H](CC(=O)O)NC(=O)[C@H](CO)NC(=O)[C@@H](NC(=O)[C@H](Cc1ccccc1)NC(=O)[C@@H](NC(=O)CNC(=O)[C@H](CCC(=O)O)NC(=O)[C@H](C)NC(=O)[C@@H](N)Cc1c[nH]cn1)[C@@H](C)O)[C@@H](C)O)C(C)C)C(=O)N[C@@H](C)C(=O)N[C@@H](Cc1c[nH]c2ccccc12)C(=O)N[C@@H](CC(C)C)C(=O)N[C@H](C(=O)N[C@@H](CCCCN)C(=O)NCC(=O)N[C@@H](CCCNC(=N)N)C(N)=O)C(C)C` [GLP-1 7-36 amide], the “stability in pooled human plasma (compound level remaining)” value in series [5] was “rapidly destroyed to below quantitation limit; also recorded: rapid destruction”.

Take `CCCCCCCCCCCCCCCC(=O)N[C@@H](CCC(=O)NCCCC[C@H](NC(=O)[C@H](CC(=O)O)NC(=O)[C@H](CO)NC(=O)[C@@H](NC(=O)[C@H](Cc1ccccc1)NC(=O)[C@@H](NC(=O)CNC(=O)[C@H](CCC(N)=O)NC(=O)[C@H](CO)NC(=O)[C@@H](N)Cc1c[nH]cn1)[C@@H](C)O)[C@@H](C)O)C(=O)N[C@@H](CO)C(=O)N[C@@H](CCC(=O)O)C(=O)N[C@@H](Cc1ccc(O)cc1)C(=O)N[C@@H](CC(C)C)C(=O)N[C@@H](CC(=O)O)C(=O)N[C@@H](CO)C(=O)N[C@@H](CCC(=O)O)C(=O)N[C@@H](CCCNC(=N)N)C(=O)N[C@@H](C)C(=O)N[C@@H](CCCNC(=N)N)C(=O)N[C@@H](CC(=O)O)C(=O)N[C@@H](Cc1ccccc1)C(=O)N[C@H](C(=O)N[C@@H](C)C(=O)N[C@@H](Cc1c[nH]c2ccccc12)C(=O)N[C@@H](CC(C)C)C(=O)N[C@@H](CCC(=O)O)C(=O)N[C@@H](C)C(=O)NCC(=O)NCC(=O)O)C(C)C)C(=O)O` [cotadutide]: in series [6] (6 weeks), the “reduction in liver fat content” value is on record as 39%. Besides, the “weight loss over 26 weeks” value in series [6] is on record as 5.4%.

B1: EU-A1873 (SEQ ID NO: 1) (peptide)
peptide: HXQGTFTSDYSKYLDEKAAKEFIQWLLQT
modifications: Aib at 2; side chain lactam between Glu16 and Lys20; Lys17 acylated with Z17CO2H / GC18c (1-(17-carboxyheptadecyloxy) beta-D-glucuronyl); C-terminal amide (NH2)
notes: Synthetic 29-residue peptide amide; also called ALT-801; analogue 17
Turning to B1, the “percent bound to BSA” value in [7] is greater than 99%. The Percentage of ALT-801 Bound was 99.9% in [8]; 99.9% in [9]; 99.7% in [10]; 99.7% and 99.8% in series [11]; 99.7% and 99.8% in [12]; 100% in series [13]. The Percentage of ALT-801 Unbound was 0.117% in [8]; 0.126% in [9]; 0.309% in series [10]; 0.334% and 0.204% and 0.184% in series [11]; 0.265% and 0.223% in series [12]. Moreover, the Percentage of ALT-801 Bound, Mean is 99.8% in series [10], 99.8% in series [11], 99.8% in series [12] and 100% in series [13]. Also, the Percentage of ALT-801 Unbound, Mean in [10] is 0.213%; in series [11], 0.241%; in series [12], 0.205%; in series [13], 0.0487%.

For the molecule H[Aib]QGTFTSDYSKYLDEQAAKEFIK(GC8)WLLQT-NH2 (lactam 16-20) [Analogue 1 (SEQ ID NO: 12)], in series [14], the “EC50 (pM) hGCGR, cAMP accumulation, 0.1% BSA” value came out at 20 pM. The “EC50 (pM) hGLP-1R, cAMP accumulation, 0.1% BSA” value in [15] turned out to be 8 pM.

These data come from patent publication US20210290732A1, “GLP-1R and GCGR Agonists, Formulations, and Methods of Use” (Spitfire Pharma LLC, priority 2020, published 2021).
